According to patent US20140179896A1 (published 2014):
Numbering of substitutions follows the chain as printed.

B1: 1′DelAl PR4 (designed binder)
chain: EVVAATPTSLLISWRHPHFPTRYYRITYGETGGNSPVQEFTVPLQPPTATISGLKPGVDYTITGYAVTVAQNDHELLTPISINYRT
notes: Del 1-8
B2: 2′Del G11 PR4 (designed binder)
chain: B1 chain with V69G, A70G, N72M, D73N, H74R, E75V, L77M
notes: Del 1-8
B3: 2′Del H12 PR4 (designed binder)
chain: B1 chain with V69A, A70G, Q71G, D73G
notes: Del 1-8
B4: 2′Del F7 PR4 (designed binder)
chain: B1 chain with V69L, A70G, Q71L, N72R, H74R, L77F, T78V
notes: Del 1-8
B5: 1′DelH12 PR4 (designed binder)
chain: B1 chain with D73E, H74R, L77F
notes: Del 1-8
B6: 1′DelD2 PR4 (designed binder)
chain: B1 chain with Q71K
notes: Del 1-8
B7: 2′Del D10 PR4 (designed binder)
chain: B1 chain with V69L, Q71D, D73A, H74R
notes: Del 1-8
B8: 2′Del E5 PR4 (designed binder)
chain: B1 chain with V69E, A70G, Q71L, L77I, T78I
notes: Del 1-8
B9: 1′DelA2 PR4 (designed binder)
chain: B1 chain with D73G, E75Q, L77F
notes: Del 1-8
B10: 1′DelE2 PR4 (designed binder)
chain: B1 chain with A70G
notes: Del 1-8
B11: 2′Del F5 PR4 (designed binder)
chain: B1 chain with V69L, A70V, Q71H, H74R
notes: Del 1-8
B12: 2′Del C6 PR4 (designed binder)
chain: B1 chain with V69M, A70G, Q71F, N72M, D73A, L77M, T78V
notes: Del 1-8
B13: 1′DelH5 PR4 (designed binder)
chain: B1 chain with H74R, L77F
notes: Del 1-8
B14: 2′Del D1 PR4 (designed binder)
chain: B1 chain with V69L, A70E, H74R, E75V
notes: Del 1-8
B15: 2′Del A2 PR4 (designed binder)
chain: B1 chain with V69G, A70G, Q71R, D73G, E75T
notes: Del 1-8
B16: 2′Del H6 PR4 (designed binder)
chain: B1 chain with V69T, A70G, Q71H, N72H, L77I, T78I
notes: Del 1-8
B17: 2′Del C11 PR4 (designed binder)
chain: B1 chain with V69A, A70G, Q71L, D73E, T78I
notes: Del 1-8
B18: 1′DelD1 PR4 (designed binder)
chain: B1 chain with A70T
notes: Del 1-8
B19: 2′Del B5 PR4 (designed binder)
chain: B1 chain with V69A, A70G, Q71R, N72H, L77I, T78I
notes: Del 1-8
B20: 1′DelD5 PR4 (designed binder)
chain: B1 chain with A70G, D73H, L77F
notes: Del 1-8
B21: 1′DelH10 PR4 (designed binder)
chain: B1 chain with V69F
notes: Del 1-8
B22: 2′DelB7 PR4 (designed binder)
chain: B1 chain with A70G, Q71Y, D73N, H74R
notes: Del 1-8
B23: 2′Del H5 PR4 (designed binder)
chain: B1 chain with V69L, A70G, Q71K, N72D, D73V, H74R
notes: Del 1-8
B24: 2′Del C8 PR4 (designed binder)
chain: B1 chain with V69T, Q71H, D73G
notes: Del 1-8
B25: 1′Del G10 PR4 (designed binder)
chain: B1 chain with V69M, D73G, E75K, L77M
notes: Del 1-8
B26: 2′Del B2 PR4 (designed binder)
chain: B1 chain with V69T, A70G, Q71W, D73G, H74N, L77F
notes: Del 1-8
B27: 1′DelE7 PR4 (designed binder)
chain: B1 chain with D73G, L77F
notes: Del 1-8
B28: 1′DelF3 PR4 (designed binder)
chain: B1 chain with V69M, E75K, L77F
notes: Del 1-8
B29: 2′Del F8 PR4 (designed binder)
chain: B1 chain with V69A, A70G, Q71P, N72G, D73A
notes: Del 1-8
B30: 2′Del F1 PR4 (designed binder)
chain: B1 chain with V69R, A70D, N72Y, D73E
notes: Del 1-8
B31: 2′Del E6 PR4 (designed binder)
chain: B1 chain with V69M, A70G, Q71K, D73G
notes: Del 1-8
B32: 2′Del C1 PR4 (designed binder)
chain: B1 chain with V69A, A70G, Q71L, N72D, D73E, T78I
notes: Del 1-8
B33: 2′Del C5 PR4 (designed binder)
chain: B1 chain with V69P, A70G, Q71H, L77M, T78V
notes: Del 1-8
B34: 2′DelA5 PR4 (designed binder)
chain: B1 chain with V69W, A70N, D73G, H74Q, L77F
notes: Del 1-8
B35: 2′Del F11 PR4 (designed binder)
chain: B1 chain with V69M, A70G, H74K, L77I
notes: Del 1-8
B36: 2′Del D3 PR4 (designed binder)
chain: B1 chain with V69S, A70G, Q71L, H74R, E75V, L77F, T78I
notes: Del 1-8
B37: 2′Del B3 PR4 (designed binder)
chain: B1 chain with V69D, Q71P, D73G, H74R, L77M, T78V
notes: Del 1-8
B38: 2′Del A11 PR4 (designed binder)
chain: B1 chain with V69E, A70D, Q71I, N72R, D73V, H74L, E75W, L77N, P79T
notes: Del 1-8
B39: 1′DelE6 PR4 (designed binder)
chain: B1 chain with V69L, H74R
notes: Del 1-8
B40: 2′Del B4 PR4 (designed binder)
chain: B1 chain with V69S, A70G, Q71H, D73G, L76V, L77M
notes: Del 1-8
B41: 2′Del D5 PR4 (designed binder)
chain: B1 chain with Q71W, E75M, L77M
notes: Del 1-8
B42: 2′Del E3 PR4 (designed binder)
chain: B1 chain with V69L, A70G, Q71P, N72Y, D73E
notes: Del 1-8
B43: 2′Del G9 PR4 (designed binder)
chain: B1 chain with A70E, D73G, H74R, L77I, T78I
notes: Del 1-8

Molecular target: T1, human vascular endothelial growth factor receptor-2 Fc chimera (KDR-Fc) (human, UniProt P35968 20-764)
T1 construct: range 1-764; also called human VEGFR-2; VEGF-R2-Fc; not shown: human IgG1 Fc
Test: radioactive equilibrium binding, 1 nM KDR-Fc
Method: To prepare ³⁵S-labeled binding proteins for analysis, mRNA was prepared as described above for RNA-protein fusion production but the linker ligation step was omitted. The mRNA was expressed using rabbit reticulocyte lysate translation kit (Ambion) in the presence of ³⁵S-labeled Met at 30° C. for 1 hour. Expressed protein was purified on M2-agarose Flag beads (Sigma) as described above. This procedure produced the encoded protein without the nucleic acid tail. In a direct binding assay, VEGF-R2-Fc fusions in concentrations ranging from 0 to 200 nM were added to a constant concentration of the purified protein (0.2 or 0.5 nM) and incubated at 30° C. for 1 hour in buffer B. The receptor-binder complexes were captured using Protein A magnetic beads for another 10 minutes at room temperature using a Kingfisher™ The beads were washed with six reaction volumes of buffer B. The protein was eluted from the beads with 100 μL of 0.1 M KOH. […] of the reaction mixture and elution were dried onto a LumaPlate-96 (Packard) and the amount of ³⁵S on the plate was measured using a TopCount NXT instrument (Packard). The amount of fibronectin-based scaffold protein bound to the target was estimated as a percent of radioactivity eluted from Protein A magnetic beads compare to radioactivity in the reaction mixture. Nonspecific binding of fibronectin-based scaffold proteins to the beads was determined by measuring binding in the absence of KDR-Fc and represented less than 1-2% of the input. Specific binding was obtained through subtraction of nonspecific binding from total binding. Data was analyzed using the GraphPad Prizm software (GraphPad Software, Inc, San Diego, Calif.), fitted using a one site, non-linear binding equation.

T1 sequence (P35968 20-764 limits assumed, change not shown, form in doubt): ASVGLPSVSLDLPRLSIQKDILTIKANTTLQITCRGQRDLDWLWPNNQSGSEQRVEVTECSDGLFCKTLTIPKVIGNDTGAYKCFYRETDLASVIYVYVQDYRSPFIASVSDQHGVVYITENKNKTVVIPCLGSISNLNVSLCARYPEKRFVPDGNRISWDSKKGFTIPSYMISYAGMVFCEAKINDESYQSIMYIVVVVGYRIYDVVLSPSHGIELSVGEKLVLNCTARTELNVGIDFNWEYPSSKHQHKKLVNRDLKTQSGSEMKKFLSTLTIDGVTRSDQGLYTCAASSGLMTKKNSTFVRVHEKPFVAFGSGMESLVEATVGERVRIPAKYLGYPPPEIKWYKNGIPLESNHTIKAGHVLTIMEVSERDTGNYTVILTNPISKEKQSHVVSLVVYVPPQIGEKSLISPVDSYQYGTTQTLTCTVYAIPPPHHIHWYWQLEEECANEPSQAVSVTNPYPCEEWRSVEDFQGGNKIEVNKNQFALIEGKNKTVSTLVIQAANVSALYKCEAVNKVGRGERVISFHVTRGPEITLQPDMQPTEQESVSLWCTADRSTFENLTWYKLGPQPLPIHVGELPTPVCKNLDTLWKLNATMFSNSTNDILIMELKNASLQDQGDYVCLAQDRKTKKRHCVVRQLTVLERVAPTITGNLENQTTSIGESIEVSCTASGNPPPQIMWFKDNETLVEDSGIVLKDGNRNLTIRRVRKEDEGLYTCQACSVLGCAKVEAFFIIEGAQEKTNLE

Row | Binder | Binding to 1 nM KDR, %
1 | B1 | 14%
2 | B2 | 22%
3 | B3 | 24%
4 | B4 | 38%
5 | B5 | 18%
6 | B6 | 17%
7 | B7 | 34%
8 | B8 | 19%
9 | B9 | 23%
10 | B10 | 16%
11 | B11 | 22%
12 | B12 | 34%
13 | B13 | 17%
14 | B14 | 28%
15 | B15 | 17%
16 | B16 | 28%
17 | B17 | 34%
18 | B18 | 16%
19 | B19 | 33%
20 | B20 | 17%
21 | B21 | 17%
22 | B22 | 32%

Row | Binder | Binding to 1 nM KDR, %
23 | B23 | 34%
24 | B24 | 15%
25 | B25 | 36%
26 | B26 | 29%
27 | B27 | 22%
28 | B28 | 16%
29 | B29 | 42%
30 | B30 | 20%
31 | B31 | 43%
32 | B32 | 32%
33 | B33 | 26%
34 | B34 | 20%
35 | B35 | 27%
36 | B36 | 38%
37 | B37 | 17%
38 | B38 | 16%
39 | B39 | 24%
40 | B40 | 31%
41 | B41 | 18%
42 | B42 | 33%
43 | B43 | 33%
